According to patent publication US20240117038A1 (Ablynx, published 2024):
Substitutions are numbered along the chain they refer to. Numbers in names are those of the source.

T1: human CX3CR1 (human, UniProt P49238 1-355)
T1 construct: Overexpressed on CHO K1, Ba/F3 or HEK293T cells; also called huCX3CR1; hCX3CR1
T1 sequence: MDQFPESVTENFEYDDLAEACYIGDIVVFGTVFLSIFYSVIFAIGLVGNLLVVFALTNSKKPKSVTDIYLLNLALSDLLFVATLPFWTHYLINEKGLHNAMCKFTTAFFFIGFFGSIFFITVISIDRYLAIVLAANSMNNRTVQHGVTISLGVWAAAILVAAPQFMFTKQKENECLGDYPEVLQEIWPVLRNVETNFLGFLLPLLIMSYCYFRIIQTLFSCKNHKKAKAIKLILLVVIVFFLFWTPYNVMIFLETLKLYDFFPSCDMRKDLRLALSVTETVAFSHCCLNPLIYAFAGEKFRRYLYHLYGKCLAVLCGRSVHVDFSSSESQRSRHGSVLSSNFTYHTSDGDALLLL

T2: cynomolgus CX3CR1 (cynomolgus monkey (Macaca fascicularis), UniProt P49238 1-355 (human entry))
T2 construct: Overexpressed on CHO K1 cells; also called cyno CX3CR1; cyCX3CR1
T2 chain: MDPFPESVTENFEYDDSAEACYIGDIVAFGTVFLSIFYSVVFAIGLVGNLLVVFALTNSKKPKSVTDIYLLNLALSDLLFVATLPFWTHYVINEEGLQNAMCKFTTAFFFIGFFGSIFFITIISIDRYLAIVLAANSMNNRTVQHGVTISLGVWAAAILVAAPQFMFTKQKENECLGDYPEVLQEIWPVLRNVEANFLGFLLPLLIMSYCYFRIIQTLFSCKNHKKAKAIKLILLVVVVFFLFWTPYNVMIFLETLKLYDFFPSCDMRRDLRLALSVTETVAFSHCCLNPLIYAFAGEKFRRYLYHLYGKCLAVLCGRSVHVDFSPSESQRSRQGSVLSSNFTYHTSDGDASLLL

B1: A041600025 (VHH)
chain: DVQLVESGGGSVQPGGSLRLSCAASGSIFSSTAMAWYRQAPGKQRDLVAVISTVGITKYADSVKGRFTISRDNAKNTVYLQMNSLRPEDTALYYCTSDARRGWDTRYWGQGTLVTVSSGGGGSGGGSEVQLVESGGGVVQPGGSLRLSCAASGFTFRSFGMSWVRQAPGKGPEWVSSISGSGSDTLYADSVKGRFTISRDNSKNTLYLQMNSLRPEDTALYYCTIGGSLSRSSQGTLVTVSSGGGGSGGGSEVQLVESGGGSVQPGGSLRLSCAASGSIFSSTAMAWYRQAPGKQRDLVAVISTVGITKYADSVKGRFTISRDNAKNTVYLQMNSLRPEDTALYYCTSDARRGWDTRYWGQGTLVTVSSA
notes: Trivalent ISVD construct (two anti-CX3CR1 ISVDs, one anti-albumin ISVD), C-terminal alanine included in the entry; also called 54A12_SO (E1D)-9GS-ALB23002-9GS-54A12_SO-A
B2: A041600034 (VHH)
chain: B1 chain with Q295R, V301A, S303N, I307V, A350P
notes: Trivalent ISVD construct; also called 54A12_SO (E1D)-9GS-ALB23002-9GS-66B02_SO-A
B3: A041600085 (VHH)
chain: DVQLVESGGGLVQPGGSLRLSCAASGSIFSSTAMAWYRQAPGKRRDLVAAISTVGVTKYADSVKGRFTISRDNSKNTVYLQMNSLRPEDTAVYYCTSDPRRGWDTRYWGQGTLVTVSSGGGGSGGGSEVQLVESGGGVVQPGGSLRLSCAASGFTFRSFGMSWVRQAPGKGPEWVSSISGSGSDTLYADSVKGRFTISRDNSKNTLYLQMNSLRPEDTALYYCTIGGSLSRSSQGTLVTVSSGGGGSGGGSEVQLVESGGGLVQPGGSLRLSCAASGSIFSSTAMAWYRQAPGKRRDLVAAISTVGVTKYADSVKGRFTISRDNSKNTVYLQMNSLRPEDTAVYYCTSDPRRGWDTRYWGQGTLVTVSSA
notes: also called 307-9GS-ALB23002-9GS-307 (D1E)-A
B4: A041600035 (VHH)
chain: DVQLVESGGGSVQPGGSLRLSCAASGSIFSSTAMAWYRQAPGKQRDLVAVISTVGITKYADSVKGRFTISRDNAKNTVYLQMNSLRPEDTALYYCTSDARRGWDTRYWGQGTLVTVSSGGGGSGGGSEVQLVESGGGSVQPGGSLRLSCAASGSIFSSTAMAWYRQAPGKQRDLVAVISTVGITKYADSVKGRFTISRDNAKNTVYLQMNSLRPEDTALYYCTSDARRGWDTRYWGQGTLVTVSSGGGGSGGGSEVQLVESGGGVVQPGGSLRLSCAASGFTFRSFGMSWVRQAPGKGPEWVSSISGSGSDTLYADSVKGRFTISRDNSKNTLYLQMNSLRPEDTALYYCTIGGSLSRSSQGTLVTVSSA
notes: Trivalent ISVD construct (two anti-CX3CR1 ISVDs, one anti-albumin ISVD), C-terminal alanine included in the entry; also called 54A12_SO (E1D)-9GS-54A12_SO-9GS-ALB23002-A
B5: A041600041 (VHH)
chain: B4 chain with Q171R, V177A, S179N, I183V, A226P
notes: Trivalent ISVD construct (two anti-CX3CR1 ISVDs, one anti-albumin ISVD), C-terminal alanine included in the entry; also called 54A12_SO (E1D)-9GS-66B02_SO-9GS-ALB23002-A

Biological target: T1, human CX3CR1
Test: flow cytometry on CHO K1 huCX3CR1 cells, 30 uM HSA
Protocol: (§1) CHO cells overexpressing human or cynomolgus CX3CR1 were generated using techniques known in the art. Cells were harvested and resuspended in assay buffer (PBS, 2% FBS, 0.05% NaN3) and seeded separately in 384-well Bio-One V-bottom plates (Greiner, Cat. No. 781280), with a total of 2E04 cells seeded per well. After washing, serial dilutions of multivalent ISVD construct (starting from 250 nM, 3-fold dilution, 11 points, diluted in assay buffer), were added and incubated for 4 hours at 4° C. Binding was performed in the presence of 30 uM HSA (Sigma-Aldrich, Cat. No. A8763). Plates were then washed 3 times and cells were incubated with an anti-VHH mouse antibody (3300-fold diluted in assay buffer) for 30 minutes at 4′° C. […] Plates were finally washed 3 times and cells were resuspended in PI (Miltenyi Biotec, Cat. No. 130-093-233, 1000-fold diluted in assay buffer). Cell suspensions were analyzed with iQue Screener PLUS (Intellicyt). EC50s were estimated by dose response modelling. Curves were fit using 4 parameter logistic regression in GraphPad (GraphPad Software Inc.). A purified anti-human CX3CR1 antibody [K0124E1] (BioLegend, Cat. No. 355701/355702) was used as positive control to detect CX3CR1 expression on the cell surface.

Binder	EC50 [pM]	top
B1	460	28700
B2	630	28200
B3	170	14600
B4	360	50900
B5	220	41800

Biological target: T2, cynomolgus CX3CR1
Test: flow cytometry on CHO K1 cyCX3CR1 cells, 30 uM HSA
Protocol: as §1

Binder	EC50 [pM]	top
B1	360	266000
B2	450	273000
B3	560	186000
B4	240	411000
B5	150	346000

Biological target: T2, cynomolgus CX3CR1
Test: competition flow cytometry vs soluble huCX3CL1-AF647 on CHO K1 cyCX3CR1 cells, 30 uM HSA

Binder	% inhibition [%]	IC50 [pM]
B1	104	1700
B2	104	1800
B3	102	1100
B4	105	1100
B5	107	1800

Biological target: T1, human CX3CR1
Test: flow cytometry on transiently transfected HEK293T cells, human CX3CR1 WT
Protocol: as §1, with “After” for “CHO cells overexpressing human or cynomolgus CX3CR1 were generated using techniques known in the art. Cells were harvested and resuspended in assay buffer (PBS, 2% FBS, 0.05% NaN3) and seeded separately in 384-well Bio-One V-bottom plates (Greiner, Cat. No. 781280), with a total of 2E04 cells seeded per well. After”
Two important SNPs are described in huCX3CR1, i.e. V2491 (Rs3732379) and T280M (Rs3732378), which might influence receptor activity and binding by the ISVD. […] Different combinations of these SNPs were introduced in human CX3CR1, and binding by 5 selected multivalent ISVD constructs was assessed with flow cytometry after transient transfection of the huCX3CR1 variants in HEK293T cells.
In short, the CX3CR1 constructs were cloned into pcDNA3.1 (ThermoFisher Scientific, Cat. No. V79020) and plasmid DNA was prepared from Escherichia coli TOP10 cells. HEK293T cells were seeded at a concentration of 1.5E06 cells per T75 flask and incubated overnight at 37° C. in DMEM medium (Gibco, Cat. No. 31966) supplemented with 10% FBS (Sigma. Cat. No. F7524). The medium was then replaced by Opti-MEM medium (Gibco, Cat. No. 31985). A mixture of 9 μg plasmid DNA, 27 μL Fugene 6 (Promega, Cat. No. E2691) in a final volume of 1 mL Opti-MEM was incubated for 15 minutes at room temperature and then added to the cells. After 3 hours incubation at 37° C., 10 mL of DMEM supplemented with 20% FBS was added, and incubation continued.

Binder	EC50 [pM]
B1	65
B2	100
B3	120
B4	130
B5	160

Biological target: T1, human CX3CR1
Test: competition flow cytometry vs soluble huCX3CL1-AF647 on CHO K1 huCX3CR1 cells, 30 uM HSA

Binder	% inhibition [%]	IC50 [pM]
B1	98	3800
B2	95	4500
B3	103	7700
B4	99	2500
B5	97	2700
